Results taken from patent publication US20220411531A1 (SUMGEN MAB BEIJING BIOTECH, published 2022).

Molecular target: T1, AXL on the surfaces of human tumour cells (A549, MDA-MB-231, 786-O) (human, UniProt P30530 27-894)
T1 construct: Endogenous AXL on human tumour cell lines; The tie to the cell-line protein rests on this general definition only; also called cell surface antigen
T1 sequence: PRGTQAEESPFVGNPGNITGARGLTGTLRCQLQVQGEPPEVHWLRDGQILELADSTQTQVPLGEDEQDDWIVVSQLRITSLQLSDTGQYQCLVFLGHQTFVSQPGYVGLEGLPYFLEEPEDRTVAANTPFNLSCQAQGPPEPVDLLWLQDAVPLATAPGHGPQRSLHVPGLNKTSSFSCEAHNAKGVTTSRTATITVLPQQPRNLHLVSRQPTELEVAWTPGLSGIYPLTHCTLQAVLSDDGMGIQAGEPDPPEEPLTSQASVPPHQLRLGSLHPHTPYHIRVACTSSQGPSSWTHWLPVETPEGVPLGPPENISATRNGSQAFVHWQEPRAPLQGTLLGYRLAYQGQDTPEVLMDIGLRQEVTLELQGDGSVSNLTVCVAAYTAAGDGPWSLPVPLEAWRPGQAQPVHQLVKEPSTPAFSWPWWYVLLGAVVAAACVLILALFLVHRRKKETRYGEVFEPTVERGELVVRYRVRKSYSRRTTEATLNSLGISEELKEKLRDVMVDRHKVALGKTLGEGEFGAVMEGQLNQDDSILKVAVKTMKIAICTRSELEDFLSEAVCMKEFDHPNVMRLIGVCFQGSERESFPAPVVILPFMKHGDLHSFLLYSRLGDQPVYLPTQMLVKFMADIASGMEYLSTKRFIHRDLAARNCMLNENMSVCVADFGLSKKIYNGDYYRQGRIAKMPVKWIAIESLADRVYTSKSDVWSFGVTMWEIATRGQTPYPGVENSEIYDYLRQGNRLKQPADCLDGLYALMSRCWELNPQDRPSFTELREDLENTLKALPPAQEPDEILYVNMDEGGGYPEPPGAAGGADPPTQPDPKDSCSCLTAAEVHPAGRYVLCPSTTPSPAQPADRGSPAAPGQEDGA
Test: flow cytometry on MDA-MB-231 cells (second experiment, FIG. 9); MDA-MB-231 cells; second experiment, FIG. 9
Protocol: Cells in a logarithmic growth phase were collected; the cell density was regulated to 5×10⁶ cells/mL; and pre-cooling was performed on ice. The antibodies 6G12M11, 6G12M21, 6G12M31, and 6G12M41 were diluted to 20 μg/ml with pre-cooled normal saline containing 2% FBS. 100 μl of cells were taken, and an equal volume of each of the foregoing diluted antibodies was added to the cells to react for 30 minutes at 4° C. in the dark. After the completion of reaction, the cells were washed twice with pre-cooled physiological saline containing 2% FBS (6000 rpm, 45 s). The secondary antibody PE Mouse Anti-Human IgG (BD Pharmingen) was diluted at 1:5 with pre-cooled physiological saline containing 2% FBS, and 100 μL of the secondary antibody was taken for resuspending the cells, with a reaction conducted for 30 minutes at 4° C. in the dark. After the reaction, the cells were washed twice with pre-cooled physiological saline containing 2% FBS (6000 rpm, 45 s). The cells were resuspended by using 400 μl of 1% paraformaldehyde. The binding of antibodies to cell surface antigens was analyzed by means of a flow cytometer (BD Calibur).

B1: antibody 6G12M21 (antibody, human IgG1, kappa, V domains shown)
VH: QVQLVQSGPGLVKPSQSLSLTCSVTGFSISSGYYWNWIRQFPGQKLEWMGYRSYDGSNNYNPSLKNRISITRDTSKNQFFLKLNSVTSEDTATYYCARGWLLHYTMDYWGQGTTVTVSS
VL: DIVMTQSPSSVSVTLGQSASISCRSSRSLLHSNGFTYLYWYLQKPGQSPQLLIYQMSNLASGVPDRFSGSGSGTDFTLKISRVEAEDVGVYYCGQNLELPLTFGGGTKLEIKR
Work on B1 yielded an EC50 of 0.64 µg/mL.
